Laboratory results taken from publication PMC2669539 (Nature structural & molecular biology, 2008).

B1: human Notch-1 EGF domains 11-13 (N-1_(11-13)) with C-terminal BirA-tag, biotinylated (domain or fragment)
chain: QDVDECSLGANPCEHAGKCINTLGSFECQCLQGYTGPRCEIDVNECVSNPCQNDATCLDQIGEFQCICMPGYEGVHCEVNTDECASSPCLHNGRCLDKINEFQCECPTGFTGHLCQ
modifications: biotin on the C-terminal tag
B2: human Notch-1 EGF domains 11-13 (N-1_(11-13)) without the BirA-tag (domain or fragment)
chain: B1 chain

What was measured:
[1] = biological target: T1, human Jagged-1 DSL-EGF3 fragment (J-1_(DSL-EGF3)), His-tagged, wild type (human, UniProt P78504 187-335); test: pull-down
T1 sequence (P78504 187-335): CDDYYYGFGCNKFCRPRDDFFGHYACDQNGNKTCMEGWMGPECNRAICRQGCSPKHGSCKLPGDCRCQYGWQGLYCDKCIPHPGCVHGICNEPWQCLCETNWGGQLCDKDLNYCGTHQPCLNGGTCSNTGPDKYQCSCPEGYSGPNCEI

[2] = biological target: T1, human Jagged-1 DSL-EGF3 fragment …; test: SPR

Row | binding result [1] | binding result [2] | Binder
1 | binds |  | B1
2 |  | binds | B2
